Laboratory results from patent US20160272693A1 (ZEALAND PHARMA A S, published 2016).
*1 amine or outer side, *2 acyl side, *3 side chain or, on linkers, in order; H or OH if unused. Bridges are numbered along the chain shown (N, C = ends). [ ]: non-standard residue; d: D form. The star is where a group is joined. C20 diacid = O=C(O)CCCCCCCCCCCCCCCCCCC(=O)*; γGlu = O=C(O)[C@H](CCC(=O)[*:2])N[*:1]; Hyp = O=C(O)[C@@H]1C[C@@H](O)CN1; NMeI = CC[C@H](C)[C@H](NC)C(=O)O; Sar = CNCC(=O)O

Target: T1, human amylin receptor 3 (hAMYR3), hCTR2 co-expressed with human receptor activity modifying protein 3 (hRAMP3) (human, UniProt P30988 25-474; O60896 24-148)
T1 sequence (looked up) 1: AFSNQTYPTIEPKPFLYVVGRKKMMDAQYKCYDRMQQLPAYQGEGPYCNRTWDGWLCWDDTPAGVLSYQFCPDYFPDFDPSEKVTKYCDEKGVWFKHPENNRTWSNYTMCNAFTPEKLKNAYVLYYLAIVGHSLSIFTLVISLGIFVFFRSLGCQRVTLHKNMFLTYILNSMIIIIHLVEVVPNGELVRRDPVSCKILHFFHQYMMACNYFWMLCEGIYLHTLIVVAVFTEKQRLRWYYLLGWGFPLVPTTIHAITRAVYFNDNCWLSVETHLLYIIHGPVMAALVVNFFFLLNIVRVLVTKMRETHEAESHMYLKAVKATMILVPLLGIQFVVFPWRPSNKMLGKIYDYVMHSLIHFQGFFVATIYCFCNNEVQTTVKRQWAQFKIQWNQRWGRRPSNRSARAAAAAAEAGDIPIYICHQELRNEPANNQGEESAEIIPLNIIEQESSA
T1 sequence (looked up) 2: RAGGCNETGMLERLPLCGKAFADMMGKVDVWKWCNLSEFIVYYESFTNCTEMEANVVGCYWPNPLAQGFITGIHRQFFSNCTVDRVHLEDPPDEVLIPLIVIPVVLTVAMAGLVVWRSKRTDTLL
Assay: cell-based or functional assay

B1: [19CD]-isoGlu-R-C( )-NTAT-C( )-ATQRLAHFLQRF-Gly(Me)-A-Ile(Me)-LSSTEVGSGT-Hyp-NH2 (Compd. 79) (peptide)
peptide: {C20 diacid-γGlu}-RCNTATCATQRLAHFLQRF[Sar]A[NMeI]LSSTEVGSGT[Hyp]-NH2
modifications: disulfide 2-7
SMILES: CC[C@H](C)[C@@H](C(=O)N[C@@H](CC(C)C)C(=O)N[C@@H](CO)C(=O)N[C@@H](CO)C(=O)N[C@H](C(=O)N[C@@H](CCC(=O)O)C(=O)N[C@H](C(=O)NCC(=O)N[C@@H](CO)C(=O)NCC(=O)N[C@H](C(=O)N1C[C@H](O)C[C@H]1C(N)=O)[C@@H](C)O)C(C)C)[C@@H](C)O)N(C)C(=O)[C@H](C)NC(=O)CN(C)C(=O)[C@H](Cc1ccccc1)NC(=O)[C@H](CCCNC(=N)N)NC(=O)[C@H](CCC(N)=O)NC(=O)[C@H](CC(C)C)NC(=O)[C@H](Cc1ccccc1)NC(=O)[C@H](Cc1c[nH]cn1)NC(=O)[C@H](C)NC(=O)[C@H](CC(C)C)NC(=O)[C@H](CCCNC(=N)N)NC(=O)[C@H](CCC(N)=O)NC(=O)[C@@H](NC(=O)[C@H](C)NC(=O)[C@@H]1CSSC[C@H](NC(=O)[C@H](CCCNC(=N)N)NC(=O)CC[C@H](NC(=O)CCCCCCCCCCCCCCCCCCC(=O)O)C(=O)O)C(=O)N[C@@H](CC(N)=O)C(=O)N[C@@H]([C@@H](C)O)C(=O)N[C@@H](C)C(=O)N[C@@H]([C@@H](C)O)C(=O)N1)[C@@H](C)O
B1 was tested, and the “hAMYR3 EC50 (nM); cAMP induction” value was 0.23 nM.

B2: [19CD]-isoGlu-R-C( )-NTAT-C( )-ATQRLADFLQRSSF-Gly(Me)-A-Ile(Me)-LSSTEVGSGTP-NH2 (Compd. 80) (peptide)
peptide: {C20 diacid-γGlu}-RCNTATCATQRLADFLQRSSF[Sar]A[NMeI]LSSTEVGSGTP-NH2
modifications: disulfide 2-7
SMILES: CC[C@H](C)[C@@H](C(=O)N[C@@H](CC(C)C)C(=O)N[C@@H](CO)C(=O)N[C@@H](CO)C(=O)N[C@H](C(=O)N[C@@H](CCC(=O)O)C(=O)N[C@H](C(=O)NCC(=O)N[C@@H](CO)C(=O)NCC(=O)N[C@H](C(=O)N1CCC[C@H]1C(N)=O)[C@@H](C)O)C(C)C)[C@@H](C)O)N(C)C(=O)[C@H](C)NC(=O)CN(C)C(=O)[C@H](Cc1ccccc1)NC(=O)[C@H](CO)NC(=O)[C@H](CO)NC(=O)[C@H](CCCNC(=N)N)NC(=O)[C@H](CCC(N)=O)NC(=O)[C@H](CC(C)C)NC(=O)[C@H](Cc1ccccc1)NC(=O)[C@H](CC(=O)O)NC(=O)[C@H](C)NC(=O)[C@H](CC(C)C)NC(=O)[C@H](CCCNC(=N)N)NC(=O)[C@H](CCC(N)=O)NC(=O)[C@@H](NC(=O)[C@H](C)NC(=O)[C@@H]1CSSC[C@H](NC(=O)[C@H](CCCNC(=N)N)NC(=O)CC[C@H](NC(=O)CCCCCCCCCCCCCCCCCCC(=O)O)C(=O)O)C(=O)N[C@@H](CC(N)=O)C(=O)N[C@@H]([C@@H](C)O)C(=O)N[C@@H](C)C(=O)N[C@@H]([C@@H](C)O)C(=O)N1)[C@@H](C)O
B2 was tested, and the “hAMYR3 EC50 (nM); cAMP induction” value was 0.28 nM.

B3: [19CD]-isoGlu-R-C( )-NTAT-C( )-ATQRLADFLQRSSF-Gly(Me)-A-Ile(Me)-LSSTEVGSGT-Hyp-NH2 (Compd. 81) (peptide)
peptide: {C20 diacid-γGlu}-RCNTATCATQRLADFLQRSSF[Sar]A[NMeI]LSSTEVGSGT[Hyp]-NH2
modifications: disulfide 2-7
SMILES: CC[C@H](C)[C@@H](C(=O)N[C@@H](CC(C)C)C(=O)N[C@@H](CO)C(=O)N[C@@H](CO)C(=O)N[C@H](C(=O)N[C@@H](CCC(=O)O)C(=O)N[C@H](C(=O)NCC(=O)N[C@@H](CO)C(=O)NCC(=O)N[C@H](C(=O)N1C[C@H](O)C[C@H]1C(N)=O)[C@@H](C)O)C(C)C)[C@@H](C)O)N(C)C(=O)[C@H](C)NC(=O)CN(C)C(=O)[C@H](Cc1ccccc1)NC(=O)[C@H](CO)NC(=O)[C@H](CO)NC(=O)[C@H](CCCNC(=N)N)NC(=O)[C@H](CCC(N)=O)NC(=O)[C@H](CC(C)C)NC(=O)[C@H](Cc1ccccc1)NC(=O)[C@H](CC(=O)O)NC(=O)[C@H](C)NC(=O)[C@H](CC(C)C)NC(=O)[C@H](CCCNC(=N)N)NC(=O)[C@H](CCC(N)=O)NC(=O)[C@@H](NC(=O)[C@H](C)NC(=O)[C@@H]1CSSC[C@H](NC(=O)[C@H](CCCNC(=N)N)NC(=O)CC[C@H](NC(=O)CCCCCCCCCCCCCCCCCCC(=O)O)C(=O)O)C(=O)N[C@@H](CC(N)=O)C(=O)N[C@@H]([C@@H](C)O)C(=O)N[C@@H](C)C(=O)N[C@@H]([C@@H](C)O)C(=O)N1)[C@@H](C)O
B3 was tested, and the “hAMYR3 EC50 (nM); cAMP induction” value was 0.23 nM.

B4: [19CD]-isoGlu-R-C( )-NTAT-C( )-ATQRLADFLQRSSF-Gly(Me)-A-Ile(Me)-LSSTEVGSTT-Hyp-NH2 (Compd. 83) (peptide)
peptide: {C20 diacid-γGlu}-RCNTATCATQRLADFLQRSSF[Sar]A[NMeI]LSSTEVGSTT[Hyp]-NH2
modifications: disulfide 2-7
SMILES: CC[C@H](C)[C@@H](C(=O)N[C@@H](CC(C)C)C(=O)N[C@@H](CO)C(=O)N[C@@H](CO)C(=O)N[C@H](C(=O)N[C@@H](CCC(=O)O)C(=O)N[C@H](C(=O)NCC(=O)N[C@@H](CO)C(=O)N[C@H](C(=O)N[C@H](C(=O)N1C[C@H](O)C[C@H]1C(N)=O)[C@@H](C)O)[C@@H](C)O)C(C)C)[C@@H](C)O)N(C)C(=O)[C@H](C)NC(=O)CN(C)C(=O)[C@H](Cc1ccccc1)NC(=O)[C@H](CO)NC(=O)[C@H](CO)NC(=O)[C@H](CCCNC(=N)N)NC(=O)[C@H](CCC(N)=O)NC(=O)[C@H](CC(C)C)NC(=O)[C@H](Cc1ccccc1)NC(=O)[C@H](CC(=O)O)NC(=O)[C@H](C)NC(=O)[C@H](CC(C)C)NC(=O)[C@H](CCCNC(=N)N)NC(=O)[C@H](CCC(N)=O)NC(=O)[C@@H](NC(=O)[C@H](C)NC(=O)[C@@H]1CSSC[C@H](NC(=O)[C@H](CCCNC(=N)N)NC(=O)CC[C@H](NC(=O)CCCCCCCCCCCCCCCCCCC(=O)O)C(=O)O)C(=O)N[C@@H](CC(N)=O)C(=O)N[C@@H]([C@@H](C)O)C(=O)N[C@@H](C)C(=O)N[C@@H]([C@@H](C)O)C(=O)N1)[C@@H](C)O
For B4, the “hAMYR3 EC50 (nM); cAMP induction” value was 0.32 nM.

B5: [19CD]-isoGlu-R-C( )-GTAT-C( )-ATERLAHFLQRSSF-Gly(Me)-A-Ile(Me)-LSSTEVGSNTP-NH2 (Compd. 78) (peptide)
peptide: {C20 diacid}-[γGlu]RCGTATCATERLAHFLQRSSF[Sar]A[NMeI]LSSTEVGSNTP-NH2
modifications: disulfide 3-8
SMILES: CC[C@H](C)[C@@H](C(=O)N[C@@H](CC(C)C)C(=O)N[C@@H](CO)C(=O)N[C@@H](CO)C(=O)N[C@H](C(=O)N[C@@H](CCC(=O)O)C(=O)N[C@H](C(=O)NCC(=O)N[C@@H](CO)C(=O)N[C@@H](CC(N)=O)C(=O)N[C@H](C(=O)N1CCC[C@H]1C(N)=O)[C@@H](C)O)C(C)C)[C@@H](C)O)N(C)C(=O)[C@H](C)NC(=O)CN(C)C(=O)[C@H](Cc1ccccc1)NC(=O)[C@H](CO)NC(=O)[C@H](CO)NC(=O)[C@H](CCCNC(=N)N)NC(=O)[C@H](CCC(N)=O)NC(=O)[C@H](CC(C)C)NC(=O)[C@H](Cc1ccccc1)NC(=O)[C@H](Cc1c[nH]cn1)NC(=O)[C@H](C)NC(=O)[C@H](CC(C)C)NC(=O)[C@H](CCCNC(=N)N)NC(=O)[C@H](CCC(=O)O)NC(=O)[C@@H](NC(=O)[C@H](C)NC(=O)[C@@H]1CSSC[C@H](NC(=O)[C@H](CCCNC(=N)N)NC(=O)CC[C@H](NC(=O)CCCCCCCCCCCCCCCCCCC(=O)O)C(=O)O)C(=O)NCC(=O)N[C@@H]([C@@H](C)O)C(=O)N[C@@H](C)C(=O)N[C@@H]([C@@H](C)O)C(=O)N1)[C@@H](C)O
B5 was tested, and the “hAMYR3 EC50 (nM); cAMP induction” value was 0.24 nM.

B6: [19CD]-isoGlu-R-C( )-NTAT-C( )-ATQRLADFLQRSSF-Gly(Me)-A-Ile(Me)-LSSTEVGSTTP-NH2 (Compd. 82) (peptide)
peptide: {C20 diacid-γGlu}-RCNTATCATQRLADFLQRSSF[Sar]A[NMeI]LSSTEVGSTTP-NH2
modifications: disulfide 2-7
SMILES: CC[C@H](C)[C@@H](C(=O)N[C@@H](CC(C)C)C(=O)N[C@@H](CO)C(=O)N[C@@H](CO)C(=O)N[C@H](C(=O)N[C@@H](CCC(=O)O)C(=O)N[C@H](C(=O)NCC(=O)N[C@@H](CO)C(=O)N[C@H](C(=O)N[C@H](C(=O)N1CCC[C@H]1C(N)=O)[C@@H](C)O)[C@@H](C)O)C(C)C)[C@@H](C)O)N(C)C(=O)[C@H](C)NC(=O)CN(C)C(=O)[C@H](Cc1ccccc1)NC(=O)[C@H](CO)NC(=O)[C@H](CO)NC(=O)[C@H](CCCNC(=N)N)NC(=O)[C@H](CCC(N)=O)NC(=O)[C@H](CC(C)C)NC(=O)[C@H](Cc1ccccc1)NC(=O)[C@H](CC(=O)O)NC(=O)[C@H](C)NC(=O)[C@H](CC(C)C)NC(=O)[C@H](CCCNC(=N)N)NC(=O)[C@H](CCC(N)=O)NC(=O)[C@@H](NC(=O)[C@H](C)NC(=O)[C@@H]1CSSC[C@H](NC(=O)[C@H](CCCNC(=N)N)NC(=O)CC[C@H](NC(=O)CCCCCCCCCCCCCCCCCCC(=O)O)C(=O)O)C(=O)N[C@@H](CC(N)=O)C(=O)N[C@@H]([C@@H](C)O)C(=O)N[C@@H](C)C(=O)N[C@@H]([C@@H](C)O)C(=O)N1)[C@@H](C)O
With B6 the “hAMYR3 EC50 (nM); cAMP induction” value was 0.53 nM.

For {C20 diacid}-[γGlu]RCGTATCATERLAHFLERSSF[Sar]A[NMeI]LSSTEVGSNT[Hyp]-NH2 (disulfide 3-8) [[19CD]-isoGlu-R-C( )-GTAT-C( )-ATERLAHFLERSSF-Gly(Me)-A-Ile(Me)-LSSTEVGSNT-Hyp-NH2 (Compd. 8)], the “hAMYR3 EC50 (nM); cAMP induction” value was 0.36 nM.
